Assay results: the supplement of paper PMC9112550, “Optimization of the antimicrobial peptide Bac7 by deep mutational scanning” (BMC Biology, 2022)

System: Escherichia coli TOP10
Experiment: shrunken log2 fold change of peptide-encoding DNA abundance (4.5 h post-induction vs induction); higher = less antimicrobial activity (less host growth inhibition)
Details: time post-induction: 4.5 h; library: site-saturation at positions 5, 18, 19, 20
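Further: peptides expressed intracellularly from a pBAD plasmid library in pooled LB shake-flask culture, induced with 0.3% L-arabinose, DNA abundance read by NGS, three biological replicates, DESeq2 with apeglm shrinkage.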

Row | Sequence | shrunken log2 fold change
1 | RRIRCRPPRLPRPRPRPIFVPRP | -0.284
2 | RRIRCRPPRLPRPRPRPIGPPRP | 0.112
3 | RRIRCRPPRLPRPRPRPIGVPRP | 0.0129
4 | RRIRCRPPRLPRPRPRPIHFPRP | -0.368
5 | RRIRCRPPRLPRPRPRPIIAPRP | -0.494
6 | RRIRCRPPRLPRPRPRPIITPRP | -0.892
7 | RRIRCRPPRLPRPRPRPIKMPRP | -0.185
8 | RRIRCRPPRLPRPRPRPILFPRP | -0.405
9 | RRIRCRPPRLPRPRPRPILIPRP | 1.28
10 | RRIRCRPPRLPRPRPRPIMAPRP | -0.236
11 | RRIRCRPPRLPRPRPRPIMHPRP | -0.135
12 | RRIRCRPPRLPRPRPRPINMPRP | -1.09
13 | RRIRCRPPRLPRPRPRPINPPRP | -0.00918
14 | RRIRCRPPRLPRPRPRPINTPRP | -0.329
15 | RRIRCRPPRLPRPRPRPIQWPRP | -0.263
16 | RRIRCRPPRLPRPRPRPIRWPRP | 0.034
17 | RRIRCRPPRLPRPRPRPISIPRP | -0.443
18 | RRIRCRPPRLPRPRPRPITTPRP | -0.197
19 | RRIRCRPPRLPRPRPRPITYPRP | -0.362
20 | RRIRCRPPRLPRPRPRPIVPPRP | -0.298
21 | RRIRCRPPRLPRPRPRPIVTPRP | 0.0598
22 | RRIRCRPPRLPRPRPRPIWYPRP | -0.564
23 | RRIRCRPPRLPRPRPRPIYNPRP | -0.761
24 | RRIRCRPPRLPRPRPRPIYPPRP | -0.386
25 | RRIRCRPPRLPRPRPRPKANPRP | 1.15

Row | Sequence | shrunken log2 fold change
26 | RRIRCRPPRLPRPRPRPKDAPRP | 0.183
27 | RRIRCRPPRLPRPRPRPKDFPRP | -0.0611
28 | RRIRCRPPRLPRPRPRPKDVPRP | 0.015
29 | RRIRCRPPRLPRPRPRPKECPRP | 0.103
30 | RRIRCRPPRLPRPRPRPKFFPRP | 0.0952
31 | RRIRCRPPRLPRPRPRPKHLPRP | -0.122
32 | RRIRCRPPRLPRPRPRPKIHPRP | -0.558
33 | RRIRCRPPRLPRPRPRPKLQPRP | 0.155
34 | RRIRCRPPRLPRPRPRPKMDPRP | -0.0622
35 | RRIRCRPPRLPRPRPRPKMTPRP | 0.0216
36 | RRIRCRPPRLPRPRPRPKPIPRP | 0.0598
37 | RRIRCRPPRLPRPRPRPKSPPRP | -0.1
38 | RRIRCRPPRLPRPRPRPKTKPRP | 0.177
39 | RRIRCRPPRLPRPRPRPKYTPRP | -0.511
40 | RRIRCRPPRLPRPRPRPLDLPRP | -0.0926
41 | RRIRCRPPRLPRPRPRPLEWPRP | 0.0823
42 | RRIRCRPPRLPRPRPRPLFIPRP | -0.51
43 | RRIRCRPPRLPRPRPRPLGRPRP | -0.151
44 | RRIRCRPPRLPRPRPRPLHAPRP | 0.369
45 | RRIRCRPPRLPRPRPRPLHFPRP | -0.131
46 | RRIRCRPPRLPRPRPRPLHIPRP | -0.335
47 | RRIRCRPPRLPRPRPRPLHTPRP | -0.0899
48 | RRIRCRPPRLPRPRPRPLIEPRP | -0.0593
49 | RRIRCRPPRLPRPRPRPLIGPRP | -0.0236
50 | RRIRCRPPRLPRPRPRPLKDPRP | -0.0917

Row | Sequence | shrunken log2 fold change
51 | RRIRCRPPRLPRPRPRPLKEPRP | 0.244
52 | RRIRCRPPRLPRPRPRPLKKPRP | -0.26
53 | RRIRCRPPRLPRPRPRPLKQPRP | -0.151
54 | RRIRCRPPRLPRPRPRPLLEPRP | 0.234
55 | RRIRCRPPRLPRPRPRPLLFPRP | -0.277
56 | RRIRCRPPRLPRPRPRPLLLPRP | -0.265
57 | RRIRCRPPRLPRPRPRPLLTPRP | 0.00188
58 | RRIRCRPPRLPRPRPRPLMNPRP | -0.645
59 | RRIRCRPPRLPRPRPRPLRCPRP | 0.198
60 | RRIRCRPPRLPRPRPRPLSNPRP | 0.504
61 | RRIRCRPPRLPRPRPRPLTEPRP | 0.131
62 | RRIRCRPPRLPRPRPRPLVCPRP | -0.0544
63 | RRIRCRPPRLPRPRPRPLWSPRP | -0.233
64 | RRIRCRPPRLPRPRPRPLYSPRP | -0.672
65 | RRIRCRPPRLPRPRPRPLYWPRP | -0.201
66 | RRIRCRPPRLPRPRPRPMAIPRP | -0.132
67 | RRIRCRPPRLPRPRPRPMCHPRP | -0.662
68 | RRIRCRPPRLPRPRPRPMCTPRP | -0.098
69 | RRIRCRPPRLPRPRPRPMDGPRP | 0.013
70 | RRIRCRPPRLPRPRPRPMEMPRP | -0.193
71 | RRIRCRPPRLPRPRPRPMERPRP | -0.00088
72 | RRIRCRPPRLPRPRPRPMFLPRP | -0.847
73 | RRIRCRPPRLPRPRPRPMGSPRP | 0.0655
74 | RRIRCRPPRLPRPRPRPMHCPRP | -0.107
75 | RRIRCRPPRLPRPRPRPMHQPRP | -0.0626

Row | Sequence | shrunken log2 fold change
76 | RRIRCRPPRLPRPRPRPMKYPRP | -0.82
77 | RRIRCRPPRLPRPRPRPMLFPRP | 0.545
78 | RRIRCRPPRLPRPRPRPMLIPRP | -0.552
79 | RRIRCRPPRLPRPRPRPMLNPRP | -0.38
80 | RRIRCRPPRLPRPRPRPMLVPRP | -0.144
81 | RRIRCRPPRLPRPRPRPMMKPRP | -0.231
82 | RRIRCRPPRLPRPRPRPMNHPRP | -0.658
83 | RRIRCRPPRLPRPRPRPMPDPRP | -0.0379
84 | RRIRCRPPRLPRPRPRPMPEPRP | 0.122
85 | RRIRCRPPRLPRPRPRPMPFPRP | -0.0545
86 | RRIRCRPPRLPRPRPRPMPHPRP | -0.0714
87 | RRIRCRPPRLPRPRPRPMQTPRP | 1.52
88 | RRIRCRPPRLPRPRPRPMRQPRP | 0.076
89 | RRIRCRPPRLPRPRPRPMSHPRP | -0.207
90 | RRIRCRPPRLPRPRPRPMSRPRP | 0.0291
91 | RRIRCRPPRLPRPRPRPMSVPRP | -0.0655
92 | RRIRCRPPRLPRPRPRPMTHPRP | -0.377
93 | RRIRCRPPRLPRPRPRPMVCPRP | -0.143
94 | RRIRCRPPRLPRPRPRPMVLPRP | -0.388
95 | RRIRCRPPRLPRPRPRPMVQPRP | -0.292
96 | RRIRCRPPRLPRPRPRPMVSPRP | 0.0237
97 | RRIRCRPPRLPRPRPRPMYAPRP | 0.0401
98 | RRIRCRPPRLPRPRPRPMYTPRP | -0.551
99 | RRIRCRPPRLPRPRPRPNADPRP | 0.342
100 | RRIRCRPPRLPRPRPRPNAKPRP | 0.0347

Row | Sequence | shrunken log2 fold change
101 | RRIRCRPPRLPRPRPRPNARPRP | 0.00577
102 | RRIRCRPPRLPRPRPRPNDAPRP | -0.12
103 | RRIRCRPPRLPRPRPRPNDFPRP | -0.241
104 | RRIRCRPPRLPRPRPRPNDYPRP | -0.42
105 | RRIRCRPPRLPRPRPRPNEGPRP | -0.1
106 | RRIRCRPPRLPRPRPRPNEHPRP | -0.553
107 | RRIRCRPPRLPRPRPRPNELPRP | -0.171
108 | RRIRCRPPRLPRPRPRPNEPPRP | 0.0197
109 | RRIRCRPPRLPRPRPRPNFEPRP | -0.0286
110 | RRIRCRPPRLPRPRPRPNFNPRP | -0.372
111 | RRIRCRPPRLPRPRPRPNIWPRP | -0.178
112 | RRIRCRPPRLPRPRPRPNKDPRP | -0.534
113 | RRIRCRPPRLPRPRPRPNKFPRP | -0.472
114 | RRIRCRPPRLPRPRPRPNKNPRP | -0.344
115 | RRIRCRPPRLPRPRPRPNKWPRP | -0.00442
116 | RRIRCRPPRLPRPRPRPNLTPRP | -0.162
117 | RRIRCRPPRLPRPRPRPNMAPRP | -0.614
118 | RRIRCRPPRLPRPRPRPNNEPRP | -0.529
119 | RRIRCRPPRLPRPRPRPNPLPRP | -0.131
120 | RRIRCRPPRLPRPRPRPNPYPRP | -0.44
121 | RRIRCRPPRLPRPRPRPNQMPRP | -0.447
122 | RRIRCRPPRLPRPRPRPNQNPRP | -0.437
123 | RRIRCRPPRLPRPRPRPNRIPRP | -0.111
124 | RRIRCRPPRLPRPRPRPNRTPRP | -0.0547
125 | RRIRCRPPRLPRPRPRPNSQPRP | -0.47

Row | Sequence | shrunken log2 fold change
126 | RRIRCRPPRLPRPRPRPNTDPRP | -0.27
127 | RRIRCRPPRLPRPRPRPNTFPRP | -0.664
128 | RRIRCRPPRLPRPRPRPNVWPRP | 0.0481
129 | RRIRCRPPRLPRPRPRPNWKPRP | 0.0151
130 | RRIRCRPPRLPRPRPRPNYYPRP | -0.868
131 | RRIRCRPPRLPRPRPRPPARPRP | 0.735
132 | RRIRCRPPRLPRPRPRPPATPRP | 0.887
133 | RRIRCRPPRLPRPRPRPPCEPRP | -0.0942
134 | RRIRCRPPRLPRPRPRPPCFPRP | 0.197
135 | RRIRCRPPRLPRPRPRPPCWPRP | 0.264
136 | RRIRCRPPRLPRPRPRPPEVPRP | 0.124
137 | RRIRCRPPRLPRPRPRPPFFPRP | 0.449
138 | RRIRCRPPRLPRPRPRPPFNPRP | -0.137
139 | RRIRCRPPRLPRPRPRPPFYPRP | -0.0226
140 | RRIRCRPPRLPRPRPRPPICPRP | -0.248
141 | RRIRCRPPRLPRPRPRPPKLPRP | 0.0685
142 | RRIRCRPPRLPRPRPRPPKWPRP | 0.447
143 | RRIRCRPPRLPRPRPRPPLAPRP | 0.79
144 | RRIRCRPPRLPRPRPRPPLPPRP | 0.539
145 | RRIRCRPPRLPRPRPRPPPMPRP | 1.08
146 | RRIRCRPPRLPRPRPRPPPPPRP | 1.55
147 | RRIRCRPPRLPRPRPRPPSHPRP | -0.0142
148 | RRIRCRPPRLPRPRPRPPSWPRP | 0.194
149 | RRIRCRPPRLPRPRPRPPTKPRP | 0.108
150 | RRIRCRPPRLPRPRPRPPTQPRP | 0.515
